Laboratory results from patent publication CN117866087A.

Assays:
pTau181标准品 [1] = assay: bead sandwich flow cytometry; Tau-3 on beads as capture, PE-labelled anti-pTau181 antibody as detector, 5μg/mL pTau181 standard
pTau181标准品 [2] = assay: bead sandwich flow cytometry; Tau-2 on beads as capture, PE-labelled anti-pTau181 antibody as detector, 5μg/mL pTau181 standard

荧光信号强度 (pTau181标准品 [1]): 420000
荧光信号强度 (pTau181标准品 [2]): 343000
B1: 实施例3纯化后的重组抗体(重组抗pTau181单克隆抗体) (antibody, mouse IgG1, kappa, V domains shown)
VH: LQQPGSEYARPGASVKLSCKASGYTFTSYWMHWVKQRHGQLLEWIGNIYPGSGSSNYDEKFKSKGTLTVDTSSSTAYMHLSSLTSEDSAVYYCTRSGWLLRDYAMDYWGQGTSVTVSS
VL: DVLMTQTPLSLPVSLGDQASISCRSSQSIVHSNGNTYLEWYLQKPGQSPKLLIYKVSTRFSGVPDRFSGSGSGTDFTLKISRVEAEDLGVYYCFQGSHVPYTFGGGTKLEIKA
modifications: 在实施例4中偶联藻红蛋白荧光素(方案1)或偶联微球(方案2)
